# Experiment: soluble on expression in E. coli; label from the status in PepcDB or PDB records
row,Sequence,soluble on expression in E. coli
1,MNHMKKNILFDGLRSVARIGETAFVAARAGIKYATEKPSNAKLMRETFESLGSTYIKLGQFIASTPSLFPREYVEEFQGCLDQTPTLPFSYIQEVLAEEFEGRDLNQIFASIDETPLASASIAQVHAARLTTGEDVVIKVQKPGVETILYTDLNVVHWATKMLEKAIPKVKFASLSEIVEEIKIRMVREVDFIEEAQNLDDFVEYLKITNNQAATAPKVYHQFSTRRILTMERLYGVSLTDFDIVKKFAKDPSQVLITAMNTWFGSLMLCKSFHADLHAGNLMLLEDGRIGFIDFGIVGQLNPQVWTACLAFMDALQKTDYTAMAENMLKMGMTKTQIDTQVLAQDLERLFSGVLLADPQEILASKPSDLNDIMLDMVAVGERHGIKFPRDFALLFKQMLYFDRFMRVLAPYTDIYADQRLKMVQTIEPQSLLKHLEHHHHHH,soluble
2,MNHVSHTGSYYAASANDKVQRSKLTEDITADICVVGSGFTGLSSALHLAEKGFKVVVVEGSRIGFGASGRNGGQLVNSYSRDMDFIERNYGKHVSTEMGQMAFEGSRIIKRLINDYDIKCDLRPGGVFAACNSKQLDEMAEKQKLWAKHGYHETELLSASDIQNHVGTERYVGGLLDKAGGHIHPLNLALGEAAAFEKLGGIIYEDSIVVDIVHGKKAVIKTDSGSVTADFVVVAGNAYLEGLLPKQQKQSMPCGTQIITTEVLPEAMQKQLLPTDVCVEDCNYLLDYFRLSGDGRLIYGGGTTYGAREPSKIESIIIPKMLKTFPQLKDVKIDYAWTGNFLLTLMRLPQFGRINDNVYYAQGYSGHGVTSTHLAGKVIADAITGQAERFDVFAGLPQYPFPGGRLFKTPYTAMGAWYYQMRDKLGILEHHHHHH,soluble
3,MNIAAVAGSPTGDMIEIGQHLRVRHFCYQTAKQRGDIGKIIRIAFAEVKFRCDSQIPLQRQTATNVADMFMHAKNFLHYNDHWQWAIALLWSGMVSRHVIPL,not soluble
4,MNIAVSKPPLTIRLCGPRGFCAGVDRAIQIVVLALKAYGAPVYVRHEIVHNRYVVEGLEAKGAIFVEELHEIPAEHREQPVVFSAHGVPKSVPEDAQARNLFYLDATCPLVSKVHKQAMRHQRLGRHVVLIGHAGHPEVIGTMGQLPEGTVSLVETVEDAGVYEPVDRENLGFVTQTTLSVDDTAGVIARLQERFPAIQAPAADSICYATTNRQDAVKQAAPGCDLFIVVGAPNSSNSKRLVEVALRAGAKHSVLVQRASEIDWNEIGDIRTVGLSAGASAPEVIVDEIIEAFKARFDTTLDLAVTVEETEHFLVNRELRSIELTTDDMAFVNGNASNALPPKATAGILEHHHHHH,not soluble
5,MNIMEIEKTNRMNALFEFYAALLTDKQMNYIELYYADDYSLAEIADEFGVSRQAVYDNIKRTEKILETYEMKLHMYSDYVVRSEIFDDMIAHYPHDEYLQEKISILTSIDNRE,soluble
6,MNINKSKKRDSAVDIDNHDPFSVLLMGVDERDGDKGRADSLIYMTVNPKTKTTEMVSIPRDTYTEIIGKGKMDKINHSYAFGGVQMTVDTVENFLDVPVDYFIKVNMESFKDVVDTLGGITVNSTFAFNYDGYSFGKGEITLNGKEALAYTRMRKEDPNGDFGRQNRQRQVIEGIINKGANISSITKFGDMFKVIENNVKTNLTFDDMWDIQSGYKEARSKVIQHELKGDGTKINGIYYYKADESSLSDITAELKESLNKLEHHHHHH,soluble
7,MNIRDYIRENEARFLEDLFALIRIPSVSAKSEHKPDMQRCAEHWRDHLLQVGAQKAEVFQTPGNPVVYAERIMDPKAKTILVYAHYDVMPPEPLELWKSEPFEPVIRDGHIWARGADDDKGQGMIQVKGFETALALGLVQCNVKFLFEGEEEIGSTNLEAFCRAHKEMLSADVIIVSDTSMVSAETPSLTTGLRGLAYWEMEVTGPNRDLHSGHFGGAVANPINELCKLIAGIVDENGRITIPHFYDDVVPLSDEERQMIAQVPFSEEKYCQALDIDTVFGEAGYSTLERNSCRPSFDVCGIWGGYTGEGAKTVLPSKAYAKVSSRLVANQDHEKISQMFIDYIRSVAPKHIKVKVTPLHGGEAYLCPIDLPAYKAAEEACTIAFGKRPLAVRRGGSIPIIATFEKVLGLKTVLMGFGLESNAIHSPNENMPLDIFRKGIESVAEFYRIYK,not soluble
8,MNIYKLIGRNLEITDAIRDYVEKKLARLDRYQDGELMAKVVLSLAGSPHVEKKARAEIQVDLPGGLVRVEEEDADLYAAIDRAVDRLETQVKRFRERRYVGKRHSYQGPPPPEVRDLEALRKPEEEEGPRIVRVKRFEMKPMDPEEAAFQMEALGHSFFVFRNAKTDEINVIYRRKDGNYGLIEPA,soluble
9,MNKAKPKVVWASVYEGSAYIAPKDSYVDNMIKMAGGINACASIDSNEGRVSIEQLHEVAKDADIFVYSSSSDYAPNLDSIKSSAPVLADLDVVKNGNLWVFAPDYYQSVDKTDELIVDLVEMFHPGTTGEKIKHYINYDKLEHHHHHH,soluble
10,MNKAPHETRVVVGMSGGVDSSVAALLLKEQGYDVIGIFMKNWDDTDENGVCTATEDYEDVVRVCNQIGIPYYAVNFEKQYWDKVFTYFLNEYKAGRTPNPDVMCNKEIKFKAFLEHAMSIGADYIATGHYARVEFRDGEYKMLRGADPNKDQTYFLNQLGQAQLSKVMFPIGHLQKADVRRIAKEAGLATAGKKDSTGICFIGERDFKEFLSHYLPAQPGVMKTLDGEVKGRHDGVMYYTIGQRHGLGIGGSGEPWFVVGKDVRENVLYVAQGFENEYLYSTSLKAVDVNWVSDRKPEAPFRCTAKFRYRQPDVGVTVHPLADGGVEVVFDAPARAVTPGQAVVFYNGEECLGGGTIDEVFRNGEKLWYVG,not soluble
11,MNKDNSPSESLVNSSASEDKTVKTSMSANNPSINDSSLPERLPAMCGCDSQNREESANSGVQLSDHANESLSKQADDVIYEGGLEDKDSVFRAIIEDDDACEVLDDGIDNCEVEIPVAIECHLCNEMMNLCLRRTRYRGQAREYPAYRCNRKGCQTFRSIRKVFGNCMSDVDNSGDATTRTMIYHPPHKVRKTSPGEFSDDDSKEFVVQRVYIPKIDNRNKDQSVKSLSVTDRMRKANQDRAIVFSEFADQLRRDIVANKRVRIKKHVEEDQQGTLFYISKELNPQEVIELQDVIIKTLISMRKIPPPMTMDDLPLFANCPYSKKAVDAGEFDMSETEERPRPKLPKTIYQNTRTHSDSLTERSRHFTYDELKHSMEANAEGPSTCRIGISRSERNSESLQWIGLKTYEDSTDGFAKSVNSEGERQQGINGQIDDEVFEDESRFKPVASMQDVMRTLSTPSTLRPPVSPLMKSFSSMDSSNFKNPINAHPPMFFSDPHFLINNNQFNSPTPFYALNSYFPSFPMDSSQVYQNATDEHFTPSGASEVVCTEQTPGHHFTYIHPDSGVRLTDPSAFLTSFVPSPITKVPPINFNDETSRSRSASAPSTSVYNTGEFERSHKKYENEEDEKLMDNQNFSDEQPKE,not soluble
12,MNKDVSLGQPIVRYEDGKLFNTTDQYVTEFPLTIMVNGEEFATVICSPTNLEELVIGFLASEGAILKRDELKSVLIDDSKGFAHVELNKDLGDRFQYSTKRMIASCCGKSREFYFQNDAAIAKTSMSKITLTPIQIINMMTRLQSASHIYQETGGLHNAAISDGLTFFVHRQDIGRHNALDKLYGFCIQRHITVRDKVLIFSGRISSEILIKAAKIGVGVILSKSAPTTLAVTLANDLNITAVGFIRNGGFNIYSHPERIIDSEQ,not soluble
13,MNKKSSSMVNMPAPREPINQKIDTNNALVLNHNAIYEQRLAEITQSNTCDKAIVTVNPYGTAPLSLYLGVWMDEAAALEINVVDSEATTEEVRYQYDVHPGANLIPVCGMVSAVNNQITLRLASQIVGQYTVMTDALPPTDSANVSLGFPIISVSCPAQQASLMEEGLYFSTYFDRYNLAFDHNGIVRWYVSQEIPSYNFVRMDNGHFLATSQGINHCLNMYEFDIMGRVYTVYLLDNEFHHSILPIENNLAIAPSEYSNGRPDGYSTGKDGVSIINLSTGLEVAYYDMLYVMDYSRSPRPSGSAPGQDVSMDDWLHINQSYINEPNNLLICSGRHQSAIFGVNVDSGELRFIMANHEDWSDEFKQYLLTPVDDDGVPLYDLTSPGGIDAADKNFWTWGQHNIVEIPNDEPGILEFMVFDNGNYRSREDAKSLLPLDNFSRVVQFKINLNTMTVTRPYEYGKTEVGNRGYSSFVSAKHLLTNGHLVIHFGATTVDEFEHTITAQPGSSDLVDPDEGQQALGRLVLQEINKETKEVLFEAMVTSGYFKNEETNGTNYRYDISAFRVYKMPLFALEHHHHHH,soluble
14,MNKLRKTIGRLEVKCKNADAGCIVTCPLAHRKGHQDSCPFELTACPNEGCTSQVPRGTLAEHRQHCQQGSQQRCPLGCGATLDPAERARHNCYRELHNAWSVRQERRRPLLLSLLRRVRWLDQATSVVRRELAELSNFLEEDTALLEGAPQEEAEAAPEGNVGAEVVGEPRANIPCK,soluble
15,MNKLTIIVTYYNAEEYITGCLESIKQQRTQDFNLIIVNDGSTDQSKKLMDEAIKDYDKNIRFIDLDENSGHAHARNIALEEVETPYFMFLDADDELASYAITFYLEKFNNTDGLIAPIHSFTTQRPQFVDLDRVRVEYFNAKENINSFLRKQSACNIIFRTAIVRAHHIRFNENLNTYVDWSFVLEYMKYVNKFVRIFNFPFYFRGEVYDPFETLTLSEQNFDILFKDYVNSFYDAIKRATNPKVREFIVTKMGNKIANEFEPTRYDINERYQTHKDTLVELSKFLHVHLVKNQKLINKIETILLMNNETDKAFKVNQFRKTLRHVKNIVLRRKNKERSLYDLTDKEDNVKPKTIVFESFGGKNYSDSPKYIYEYMQKYYPNYRYIWSFKNPDKNVVPGSAEKVKRNSAEYYQAYSEASHWVSNARTPLYLNKKENQTYIQTWHGTPLKRLANDMKVVRMPGTTTPKYKRNFNRETSRWDYLISPNRYSTEIFRSAFWMDEERILEIGYPRNDVLVNRANDQEYLDEIRTHLNLPSDKKVIMYAPTWRDDEFVSKGKYLFELKIDLDNLYKELGDDYVILLRMHYLISNALDLSGYENFAIDVSNYNDVSELFLISDCLITDYSSVMFDYGILKRPQFFFAYDIDKYDKGLRGFYMNYMEDLPGPIYTEPYGLAKELKNLDKVQQQYQEKIDAFYDRFCSVDNGKASQYIGDLIHKDIKEQLEHHHHHH,soluble
16,MNKPNLENMNPNFPSSPPIDIISPFFPNILVLNSSSSIANAGVTMTAFTAASPNPITKLMLNLFREGNIESESARKPAIVVNAAPSNAFPVSEIASSAASSGDLPLFLSS,soluble
17,MNKRRVKPEHVRREEIVNAAYEVIFEVGLSNTTMAQIAKKAQLSVGIVSHYFGDKQGLINACMLEMLNVLRRKTAQYKAEVQDSHPESMIKAIIDSNFDISQVNQRAMRIWLDFWSASMHMPELSRLQRINDQRLYSNLKFHFLELMPKDQASIAARGLAALIDGLWLRGSLSQDTTFDSTLARSIAYDYVDTQLKLVKQIRQERQNE,not soluble
18,MNKYDIAVIGGGMVGAAVAVGFAKQGRSVVVVEGAEPKAFDAAQALDVRVSAISHQSVKLLESLDAWSAIEAMRVCPYRRLETWEHPECRTRFHSDELSLDQLGYIVENRLIQLGLWQAFAQFDNLTVKCPERLKDIDFNDGNRITLESGEQFDANWIIGADGANSKVRQLAGIGVTAWDYRQHCMLINVKTELPQQDITWQQFTPSGPRSFLPLCSLTEDGQEVGQGSLVWYDSPKRIKQLCAMTKPQLREEIVRHFPKELGDIEVLQFGSFPLTRRHAQSYSHRGCVLVGDSAHTINPLAGQGVNLGFKDVDVLLSVTQGQDELTDALLAKYERTRRPDNLLMQTGMDFFYKGFSNDLGPLKFARNAALKLAENSGPIKAQVLKYALGMLEHHHHHH,not soluble
19,MNLDKVNKYIKDFEKTIKKPKINFDKSKFYVGVDLGTANIVITILDKDGKPVAGVTQRSRVVRDGIVVDFMEAIEIVRKLKENLEKKLGIEITEGYTAIPPGVEQGSVRAIVNVIESAGIDVLKVVDEPTAASYVLGITDGVVVDLGGGTTGISILEKGKVIFVADEPTGGTHMTLVLAGSYGIDFETAEDIKTDKKKEKEVFVQITPVLQKMAAIVKKYIKDYKVKDVFLVGGACSFDGSESIFERELGLNIYKPYMPVYITPLGIALAGMKSLEHHHHHH,soluble

# — the DeepSol protein solubility set
